Experimental data reported in paper PMC5372792.

Key:
[1] = target: HLA-C07:01 (C1) on 721.221 cells (human | human (endogenous in 721.221))
[2] = target: HLA-C01:02 (C1) on 721.221 cells (human | human (endogenous in 721.221))

KIR2DL2 reporter (2DL2–2DS1TM chimeric molecule, KIR2DL2*001) (receptor)
GFP-positive NFAT-GFP reporter cells after overnight coculture with 721.221 transfectants (E:T 1:3) [1]: > 20 % GFP cells | GFP-positive NFAT-GFP reporter cells after overnight coculture with 721.221 transfectants (E:T 1:3) (% GFP-positive cells) [2]: < 5
